Measurements as given in US20070122903A1, “AMNIOTIC FLUID DERIVED CELLS” (priority 2005, published 2007).

B1: BMP4: bone morphogenic protein, growth factor added to the differentiation medium (protein, UniProt P12644 293-408, looked up)
Bone morphogenetic protein 4: SPKHHSQRARKKNKNCRRHSLYVDFSDVGWNDWIVAPPGYQAFYCHGDCPFPLADHLNSTNHAIVQTLVNSVNSSIPKACCVPTELSAISMLYLDEYDKVVLKNYQEMVVEGCGCR
B2: Activin A: growth factor added to the differentiation medium (protein, UniProt P08476 311-426, looked up)
Inhibin beta A chain: GLECDGKVNICCKKQFFVSFKDIGWNDWIIAPSGYHANYCEGECPSHIAGTSGSSLSFHSTVINHYRMRGHSPFANLKSCCVPTKLRPMSMLYYDDGQNIIKKDIQNMIVEECGCS
modifications: Inhibin beta A chain
notes: growth factor added to the differentiation medium
B3: FGF4: growth factor added to the differentiation medium (protein, UniProt P08620 31-206, looked up)
Fibroblast growth factor 4: APTAPNGTLEAELERRWESLVALSLARLPVAAQPKEAAVQSGAGDYLLGIKRLRRLYCNVGIGFHLQALPDGRIGGAHADTRDSLLELSPVERGVVSIFGVASRFFVAMSSKGKLYGSPFFTDECTFKEILLPNNYNAYESYKYPGMFIALSKNGKTKKGNRVSPTMKVTHFLPRL

Tested on: cell line AFCA007 Clone A (AF-I)
Experiment: Differentiation of cells into multiple endocrine lineages (collagen type I/matrigel transwell culture with growth factors)
Type: cell-based, human
Conditions: 14 days; for expression of HNF-3 beta: DMEM + 5% FBS
Method: Cells from the cell line AFCA007 Clone A (AF-I) at passage 8 were embedded in collagen type I (Becton Dickinson, CA) with 1% growth-factor reduced matrigel matrix (Becton Dickinson), and seeded into 6-well transwell insert at 5×10^5 cells per well. The bottom well was seeded with human aortic endothelial cells passage 6 (Cambrex. MD). Cells were cultured with DMEM medium supplemented with 5% FBS and growth factors, which includes Cyclopamine, bFGF, EGF, BMP4-7, Activin A, Exendin 4, FGF4, all-trans retinoic acid and γ-secretase inhibitors for 14 days. Cultures were fed every other day. […] Treatment of cells with BMPs at high concentration, 50 ng/ml, also up-regualted the GATA4 expression.

Molecule | expression of HNF-3 beta | PDX-1 expression (50 ng/ml)
B1 | up-regulated | 
B2 | up-regulated | 
B3 |  | up-regulation
